Test system: flag-tagged SUMO1
Sequence (chain, as listed by the source): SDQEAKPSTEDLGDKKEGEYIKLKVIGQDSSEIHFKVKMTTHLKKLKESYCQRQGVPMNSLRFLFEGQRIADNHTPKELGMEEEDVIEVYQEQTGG

**Q.** “SERCA2a wild type (WT), expressed from a plasmid in HEK293 cells” was tested. Which “Vmax of Ca2+-dependent ATPase activity of WT SERCA2a with co-expression of SUMO1” value did it give?
**A.** Its value is 98.58 ± 1.83 nmol/min/mg.
